Experimental data as given in patent US20050084491A1.

Target: surface integrins on A375.S2 cells (human melanoma cells)
Assay: flow cytometry on A375.S2 cells, CNTO95 10 ug/ml, no peptide (cells only: 3.36)

Substance: CNTO95 (antibody)
- Mean Channel Fluorescence: 89.7
